Source: US5569830

Target: polygalacturonase (endo-PG) from the culture filtrate of Botrytis cinerea DEL 11 (Botrytis cinerea DEL 11)

B1: pear polygalacturonase inhibitor protein (PGIP) purified from Pyrus communis L. cv Bartlett fruit (protein)
chain: DLCNPDDKKVLLQIKKAFGDPYVLASWKSDTDCCDWYCVTCDSTTNRINSLTIFAGQVSGQIPALVGDLPYLETLEFHKQPNLTGPIQPAIAKLKGLKSLRLSWTNLSGSVPDFLSQLKNLTFLDLSFNNLTGAIPSSLSELPNLGALRLDRNKLTGHIPISFGQFIGNVPDLYLSHNQLSGNIPTSFAQMDFTSIDLSRNKLEGDASVIFGLNKTTQIVDLSRNLLEFNLSKVEFPTSLTSVDINHNKIYGSIPVEFTQLNFQFLNVSYNRLCGQIPVGGKLQSFDEYSYFHNRCLCGAPLPSCK
modifications: glycoprotein: N-linked glycans (seven potential N-glycosylation sites; occupied sites not determined)
B1 gave a release of reducing sugars from sodium polypectate (reducing sugar assay) (times (against the tomato PGIPs)) of 20.
